Molecular target: the molecule itself
Test: native gel or EMSA; ICAR-purified α-his subunits alone (10 or 20 μg) on nondenaturing 4–15% or 5–10% gradient gels, 55 V, 4 °C; self-assembly into single and double α-rings

B1: Methanococcus maripaludis S2 20S proteasome α subunit, C-terminally hexahistidine-tagged, wild type (natural protein, UniProt Q6M0L9 1-259, looked up)
chain: MQQMVPASGYDRAITIFSPEGRLYQVEYAREAVRRGTTAVGIKCKDGVVLAVDRRITSKLIDVSSIEKIFQIDDHIVAATSGLVADARVLIDRARIEAQMNRVSYGEAITVEALAKKICDIKQAYTQHGGARPFGLALLITGIDRHSARLFETDPSGALIEYKATAIGSGRPIAMEVLESKYDENMTVSEGMELALYALSKTTEELKPENIDMAIIKDSGKLVEKISVDEIEKIVKAVYEKVKAEEEEAEKNKGEEDSE
notes: Proteasome subunit alpha of Methanococcus maripaludis S2, cloned by PCR from genomic DNA; expected Mr of α-his 29.5 kDa; Exists as single rings (SR), double rings (DR) and non-ring species; also called α-his; WT α; source: also Sephacryl S-300 fractions; also in lysate (lysate mixing) or coexpressed with β subunits; not shown: His6, C-terminal, kept
- binding result: binds
